From the supplement of paper PMC9170038

Test system: MS2 coat protein
Assay: apparent KD of MS2 coat protein; designed switch direction (-1 OFF switch, 1 ON switch): -1; higher = weaker reporter binding
Outline: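 Designed RNA switches were transcribed on Illumina chips by stalled E. coli RNA polymerase and titrated with SNAP-549-labelled MS2 coat protein from 0.7 or 1.5 nM, doubling to 3 µM. Step length ran from 0.8–1.5 h at the lowest concentration to 10–20 min at the highest. The apparent KD is the median over clusters for each design, from curve-fitted normalised cluster fluorescence.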

[1] = Eterna round: R95, input ligand: FMN 200 uM
[2] = Eterna round: R95, input ligand: microRNA oligo, concentration not stated
[3] = Eterna round: R95, input ligand: none
[4] = input ligand: microRNA oligo, concentration not stated

Sequence	apparent KD of MS2 coat protein [1] [nM]	apparent KD of MS2 coat protein [2] [nM]	apparent KD of MS2 coat protein [3] [nM]	apparent KD of MS2 coat protein (input ligand: FMN 200 uM) [nM]	apparent KD of MS2 coat protein (input ligand: none) [nM]	apparent KD of MS2 coat protein [4] [nM]
AAUUGCUAGCCGAUCCUCCACAUGAGGAUCACCCAUGUGCUCGUCUUGUAAUGUGCUAUCACGAAAGUGAUAGUACA [Sensor v3, turn-off variant 1 (MOD of Eli's v1-59 v.4)] (puzzle: Sensor v3, turn-off variant 1)	413	13.4	315			
AAUUUAAUUAACAAGCUUUACAUGAGGAUCACCCAUGUGAUCAUGCUCGUCUUAGGUACAGGCUUCGGCCUGUACCA [Stov1/6-B1] (Eterna round: R97, puzzle: Sensor, turn-off variant 1)				49.7	55.5	
AAUUUACAUGAGGAUCACCCAUGUCAGGAUAUGGUUUUAUUUUUUUUUUUUUUUGAUUCCAGAAGGGACAGUUA (puzzle: Exclusion 1)		22.7				
AAUUUACAUGAGGAUCACCCAUGUGAGGAUAUAUACAAAGAAGUGUUAUUAAGAAUGUAUAGAAGGCGCGUGAU [JR_Exc1_Sub039] (Eterna round: R97, puzzle: Exclusion 1)				73.6	62	
AAUUUACAUGAGGAUCACCCAUGUGAGGAUAUGGAUUCGCUGGCCGUAGCCAGUGGAUCCAGAAGGCGCAUGAU [JL-ex1-4.12] (Eterna round: R97, puzzle: Exclusion 1)				402	94.8	
AAUUUAUGAGGAUAUACAGUGUAAAACAUGAGGAUCACCCAUGUUCUUCAAUUAGUAUAUGUAGAAGGCAUAUGUA [JR_Ex5_Sub096] (Eterna round: R97, puzzle: Exclusion 5)				15	13.7	
AAUUUGCAAGCGAGAUCCCACAUGAGGAUCACCCAUGUGCUCGUCUUAUAAGGUACUGUGACAAAAGUCACGGUACC [Mat - Sensor, turn-off var - Eli Mod - D95] (Eterna round: R97, puzzle: Sensor, turn-off variant 1)				16.6	16.8	
ACAAAGCUAGGAUAUGUGGCGGAUAACAUGAGGAUCACCCAUGUGAGCUCACAGAUCCGAGCAGAAGGAGCGAUUA [EX5 A.10] (Eterna round: R97, puzzle: Exclusion 5)				15.3	14.6	
ACAAGAGCGGAAGGAUAUUGUACAUGAGGAUCACCCAUGUAAUAAAUGAGGAUCACGGAUGUAGUCAAGAAGGUCCGGAUAAGA [Ostracism 1 - Jieux - Exclusion NG 2] (Eterna round: R96, puzzle: Exclusion NG 2)				47.7	50.6	60.8
ACAAGCAGAGAGUAAAUGGACAUGAGGAUCACCCAUGUGAGUCCGAAGAGAUAAGAUAUAUUGUCGGCUCGUCUUAU [AK-miRNA-r3-21] (Eterna round: R97, puzzle: Sensor, turn-off variant 1)				105	105	
ACAAGCGAAAGGCUCGUCUUAUUUUUGUAGAGGUUCUAAACAUGAGGAUCACCCAUGUAGUGGUUAUGGUGGAGGUA [JR_SV3TOV2_Sub070] (puzzle: Sensor v3, turn-off variant 2)	57.1	64.4	74.6			
ACAAGCGUUAAGGAUAUACUGCCCUCAUUCUCGGUAGAAGGUAACACUUGAGGAUCACCCAAGUGAAAACCUGA [Erxeesis] (Eterna round: R97, puzzle: Exclusion 6)				10.6	9.67	
ACAAGCGUUUUGCUCGUAAAGUAGGAACGCGAGAGCGGCACAUGAGGAUCACCCAUGUAGAGGCAGUUGGUGGAGAU [JR_SV3TOV2_Sub030] (puzzle: Sensor v3, turn-off variant 2)	24.5	24.2	25.3			
ACAAGCUAAAUCAUAUCUUACAUGAGGAUCACCCAUGUUUUUGCAAUUAUGUUUGGCCUCCUUUGUGCUCGUCUUAU [JR_STOV1_Sub051] (Eterna round: R97, puzzle: Sensor, turn-off variant 1)				16.4	16.7	
ACAAGCUUCGAUAUCCUUAACAUGAGGAUCACCCAUGUUCGUCUUAUGAUGGUCUGAUCCCUGAGGAUCGGACCGUU [JL-sv1-2.09 Brourd Mod] (puzzle: Sensor v3, turn-off variant 1)	40.9	62.3	40.4			
ACAAGCUUUUAGAUUCUUAACAUGAGGAUCACCCAUGUGCUCGUCUUAUUGGCCGGCCGGCCGCCGGCCGGCCGGCC (Eterna round: R97, puzzle: Sensor, turn-off variant 1)				43.6	40.9	

Sequence	apparent KD of MS2 coat protein [1] [nM]	apparent KD of MS2 coat protein [2] [nM]	apparent KD of MS2 coat protein [3] [nM]	apparent KD of MS2 coat protein (input ligand: FMN 200 uM) [nM]	apparent KD of MS2 coat protein (input ligand: none) [nM]	apparent KD of MS2 coat protein [4] [nM]
ACAAGCUUUUUGCUCGGGUACAUGAGGAUCACCCAUGUUUGUGUUUAUUGAGGUUGUGUUGUCGUGCGCUGCAGGUU [JR_SV3TOV1_Sub077] (puzzle: Sensor v3, turn-off variant 1)	59.3	38.7	66.5			
ACAAGCUUUUUGUUCGUCUUAUAAUAAUAAAUAAAUAUAACAUGAGGAUCACCCAUGUUGAGAAGACAACCUCAUGU [Sesor Array 24 - Jieux - Sensor v3, turn-off variant 2] (puzzle: Sensor v3, turn-off variant 2)	242	108	420			
ACAAGUUUUUAGAUUCUUAACAUGAGGAUCACCCAUGUGCUCGUCUUGUUGGGCCCGGGCCCGCCGGGCCCGGGCCC (Eterna round: R97, puzzle: Sensor, turn-off variant 1)				60.5	72.2	
ACAAGUUUUUAGAUUCUUAACAUGAGGAUCACCCAUGUGCUCGUCUUGUUUGUACUAUCACCGAAGGUGAUAGUACA (Eterna round: R97, puzzle: Sensor, turn-off variant 1)				69.9	70	
ACACCACAUGAGGAUCACCCAUGUAAGGAUAUAACGCAUCCGCGUAACUGCGGGCAAGUUAGAAGGUGUAUGGG [Eternabot (L2) Solution 91] (Eterna round: R97, puzzle: Exclusion 1)				91.9	49.6	
ACACUGCGAGGAUAUACAUGAGGAUCACCCAUGUGUCGGCAGCCACGGUAGCACUAGUGUAGAAGGCGCAUUAG [EX3 #42] (Eterna round: R97, puzzle: Exclusion 3)				41.1	28.3	
ACAGCUAAUCUGCUCGUCUACAUGAGGAUCACCCAUGUCAUGGUCCACCUAAGAGUCAGUUACCCAAGUGAUAUUCG [Eternabot (L1) Solution 29] (Eterna round: R97, puzzle: Sensor, turn-off variant 1)				204	224	
ACAGUGUUAGGAUAUGUGUGAGUUAGUCUCGACUAGUCGAUGCAGAAGGAACAUGAGGAUCACCCAUGUAGAUC [EX4 #80] (Eterna round: R97, puzzle: Exclusion 4)				136	64	
ACAUCACAGCUAGGAUAUAGAUGACAUGAGGAUCACCCAUGUUAUCCCAUGUUGACGAAAACCGACUAGAAGGAGCUACAGAUG [Ex NG2 #6] (Eterna round: R96, puzzle: Exclusion NG 2)				101	63.7	40.2
ACAUGACUGCUAGGAUAUAGAUGACAUGAGGAUCACCCAUGUUGUCUCAUGUUUAUGGAAACGGACUAGAAGGAGUAGUAUAUG [Ex NG2 #15] (Eterna round: R96, puzzle: Exclusion NG 2)				20.6	21.3	14.5
ACAUGAGGAUCACCCAUGUAAACAUGAUGGCUGAUGUAGAGCUAGGAUAUGAGUGGCUUUCUAUCUCAGAAGGAGCUUGACUGG [Deportation 43 - Jieux - Exclusion NG 3] (Eterna round: R96, puzzle: Exclusion NG 3)				30.8	35.7	22.8
ACAUGAGGAUCACCCAUGUAAUCAUGAUGGCUGAUGUAGAGCUAGGAUAUGAGUGGCUUUCUAUCUCAGAAGGAGCAAGACUGG [Deportation 40 - Jieux - Exclusion NG 3] (Eterna round: R96, puzzle: Exclusion NG 3)				44.1	36.8	31.6
ACAUGAGGAUCACCCAUGUAAUGAUGGGUACUAUAUUAUUCGUAGGAUAUCGUUGUUAGUUUGUUCGAGAAGGACGUUUGCCUU [JR_ExcNG3_Sub055] (Eterna round: R96, puzzle: Exclusion NG 3)						824
ACAUGAGGAUCACCCAUGUACAGGGUUUAGUUUCAUCGUUUGAAGGAUAUACUCCGUUAGUUGUCGUAGAAGGUCACAGUUUGG [JR_ExcNG3_Sub007] (Eterna round: R96, puzzle: Exclusion NG 3)				179	178	128
ACAUGAGGAUCACCCAUGUACUGGGUUUAGUUUCAUCGUUUGAAGGAUAUACUCCGUUAGUUGUCGUAGAAGGUCACAGUUUGG [JR_ExcNG3_Sub008] (Eterna round: R96, puzzle: Exclusion NG 3)				457	517	407
ACAUGAGGAUCACCCAUGUCCGGCUGGUCUGUUCCGGCUGUCGAGGAUAUAGUCCGGUGUUCGCGCUAGAAGGCGAGGGCUGGA [Aenatbe mod 48] (Eterna round: R96, puzzle: Exclusion NG 3)				88	43.6	29.9
